Experimental data from paper PMC3085893 (European journal of cell biology, 2011).

B1: GFP-AFAP1 (Actin Filament-Associated Protein of 110 kDa) (natural protein, UniProt Q8N556 1-730, looked up)
chain: MEELIVELRLFLELLDHEYLTSTVREKKAVITNILLRIQSSKGFDVKDHAQKQETANSLPAPPQMPLPEIPQPWLPPDSGPPPLPTSSLPEGYYEEAVPLSPGKAPEYITSNYDSDAMSSSYESYDEEEEDGKGKKTRHQWPSEEASMDLVKDAKICAFLLRKKRFGQWTKLLCVIKDTKLLCYKSSKDQQPQMELPLQGCNITYIPKDSKKKKHELKITQQGTDPLVLAVQSKEQAEQWLKVIKEAYSGCSGPVDSECPPPPSSPVHKAELEKKLSSERPSSDGEGVVENGITTCNGKEQVKRKKSSKSEAKGTVSKVTGKKITKIISLGKKKPSTDEQTSSAEEDVPTCGYLNVLSNSRWRERWCRVKDNKLIFHKDRTDLKTHIVSIPLRGCEVIPGLDSKHPLTFRLLRNGQEVAVLEASSSEDMGRWIGILLAETGSSTDPEALHYDYIDVEMSASVIQTAKQTFCFMNRRVISANPYLGGTSNGYAHPSGTALHYDDVPCINGSLKGKKPPVASNGVTGKGKTLSSQPKKADPAAVVKRTGSNAAQYKYGKNRVEADAKRLQTKEEELLKRKEALRNRLAQLRKERKDLRAAIEVNAGRKPQAILEEKLKQLEEECRQKEAERVSLELELTEVKESLKKALAGGVTLGLAIEPKSGTSSPQSPVFRHRTLENSPISSCDTSDTEGPVPVNSAAVLKKSQAAPGSSPCRGHVLRKAKEWELKNGT
B2: GFP-AFAP1L1 (Actin Filament Associated Protein 1 Like 1) (natural protein, human, UniProt Q8TED9 1-768, looked up)
chain: MDRGQVLEQLLPELTGLLSLLDHEYLSDTTLEKKMAVASILQSLQPLPAKEVSYLYVNTADLHSGPSFVESLFEEFDCDLSDLRDMPEDDGEPSKGASPELAKSPRLRNAADLPPPLPNKPPPEDYYEEALPLGPGKSPEYISSHNGCSPSHSIVDGYYEDADSSYPATRVNGELKSSYNDSDAMSSSYESYDEEEEEGKSPQPRHQWPSEEASMHLVRECRICAFLLRKKRFGQWAKQLTVIREDQLLCYKSSKDRQPHLRLALDTCSIIYVPKDSRHKRHELRFTQGATEVLVLALQSREQAEEWLKVIREVSKPVGGAEGVEVPRSPVLLCKLDLDKRLSQEKQTSDSDSVGVGDNCSTLGRRETCDHGKGKKSSLAELKGSMSRAAGRKITRIIGFSKKKTLADDLQTSSTEEEVPCCGYLNVLVNQGWKERWCRLKCNTLYFHKDHMDLRTHVNAIALQGCEVAPGFGPRHPFAFRILRNRQEVAILEASCSEDMGRWLGLLLVEMGSRVTPEALHYDYVDVETLTSIVSAGRNSFLYARSCQNQWPEPRVYDDVPYEKMQDEEPERPTGAQVKRHASSCSEKSHRVDPQVKVKRHASSANQYKYGKNRAEEDARRYLVEKEKLEKEKETIRTELIALRQEKRELKEAIRSSPGAKLKALEEAVATLEAQCRAKEERRIDLELKLVAVKERLQQSLAGGPALGLSVSSKPKSGETANKPQNSVPEQPLPVNCVSELRKRSPSIVASNQGRVLQKAKEWEMKKT

Tests used:
[1] = biological target: GST-Src SH3 domain (UniProt P12931 84-145); assay: pull-down
[2] = biological target: GST-cortactin SH3 domain (UniProt Q14247 492-550); assay: pull-down
Chain of GST-cortactin SH3 domain (Q14247 492-550): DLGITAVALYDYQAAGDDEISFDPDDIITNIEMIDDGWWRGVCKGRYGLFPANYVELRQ

| fold increase in the ratio pulled down over GST control [1] [fold] | fold increase in the ratio pulled down over GST control [2] [fold] | Binder |
| --- | --- | --- |
| 14 | – | B1 |
| – | ~9 | B2 |
